According to patent US20090252729A1:

Assays:
[1] = molecular target: human FcRIII-GST (CD16a, V158) (human) (UniProt P08637); test: Alphascreen assay, human FcγR CD16a
[2] = molecular target: cynomolgus FcγR III (CD16a) (cynomolgus) (UniProt Q8SPW2); test: Alphascreen assay, cynomolgus FcγR CD16a
[3] = molecular target: cynomolgus FcγR IIa (CD32a) (cynomolgus); test: Alphascreen assay, cynomolgus FcγR CD32a (R)

Chain of human FcRIII-GST (CD16a, V158) (human) (P08637 17-208 F176V limits assumed): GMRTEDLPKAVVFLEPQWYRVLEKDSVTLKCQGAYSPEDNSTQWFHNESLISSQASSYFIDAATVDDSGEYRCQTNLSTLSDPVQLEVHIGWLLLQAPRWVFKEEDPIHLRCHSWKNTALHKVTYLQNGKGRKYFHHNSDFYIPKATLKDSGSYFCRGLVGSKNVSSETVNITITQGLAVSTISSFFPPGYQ
Chain of cynomolgus FcγR III (CD16a) (cynomolgus) (Q8SPW2 17-208 limits assumed): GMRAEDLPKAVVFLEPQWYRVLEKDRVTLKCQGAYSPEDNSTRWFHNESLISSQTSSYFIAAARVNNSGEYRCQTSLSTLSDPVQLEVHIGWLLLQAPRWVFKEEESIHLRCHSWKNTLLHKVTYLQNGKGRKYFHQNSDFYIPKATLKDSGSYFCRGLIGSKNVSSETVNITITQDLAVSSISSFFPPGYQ

For Agly 5c8 IgG1 (antibody), the EC50 [1] was 1.84 µM, the EC50 [2] was 2.31 µM and the EC50 [3] was 1.17 µM.
